# Data reported in the RNAGym collection of RNA variant scans (doi:10.7554/elife.80360).
# B1: Twister Ribozyme (parent)
# chain: AACACUGCCAAUGCCGGUCCCAAGCCCGGAUAAAAGUGGAGGGGGCGG
# Variants of: B1
# Assay: self-cleavage, relative activity (ratio to wild type); higher = more cleavage; co-transcriptional
row,Variant,self-cleavage
1,G7U U12C,0.0693
2,G7U G43A,0.0755
3,G7U G43C,0.0634
4,C8G G24C,0.993
5,C8G G24A,0.203
6,G7U U31A,0.133
7,G7U U31G,0.131
8,C8A,0.61
9,C8G,0.558
10,C8U,0.777
11,C8G C9U,0.0635
12,C8G C9G,0.107
13,G7C A22C,0.0571
14,G7U G29C,0.0397
15,G7U G29A,0.0635
16,C8G U31C,0.497
17,C8G U31A,0.472
18,C8G G29C,0.077
19,C8G G29U,0.156
20,C8G G29A,0.3
21,G7C G48C,0.0656
22,C8A C15G,0.0688
23,C8A C15U,0.365
24,C8A C20G,0.0882

row,Variant,self-cleavage
1,C8G G41A,0.179
2,C8G G41C,0.122
3,G7C U18A,0.0787
4,C8G U12A,0.609
5,C8G U12C,0.435
6,G7U G48A,0.078
7,C8G A10U,0.429
8,G7C C25A,0.0795
9,G7C C25G,0.218
10,C8G G44C,0.177
11,C8A C19U,0.107
12,C8A C19A,0.0947
13,G7U G28A,0.0571
14,C8G A11G,0.392
15,G7U C20A,0.0332
16,G7U C19G,0.0806
17,G7U C19U,0.0568
18,C8A U18C,0.0479
19,G7U C14U,0.0997
20,C8A U12A,0.475
21,C8U G39C,0.147
22,C8U A40C,0.202
23,C8U A40U,0.17
24,G7C C20G,0.0473

row,Variant,self-cleavage
1,G7C C20U,0.122
2,C8G A32U,0.322
3,C8G A32C,0.323
4,C8G A32G,0.275
5,G7C G24A,0.0629
6,C8G G16U,0.108
7,C8U G17U,0.0946
8,C8U G17A,0.119
9,C8U G17C,0.0682
10,G7A G44A,0.619
11,G7A G44U,0.422
12,G7A G44C,0.322
13,C8A A30G,0.567
14,G7C C9U,0.101
15,G7C C9G,0.0747
16,G7U A35C,0.0996
17,G7U A35G,0.0839
18,G7U A35U,0.109
19,G7U A34G,0.0851
20,G7U A34C,0.0467
21,G7U A10C,0.117
22,C8A G39A,0.154
23,C8A G39C,0.148
24,G7U U37A,0.0497

row,Variant,self-cleavage
1,C8G C21G,0.0605
2,G7A G42U,0.136
3,C8A G43U,0.119
4,C8A G43A,0.177
5,G7C G29C,0.0533
6,G7C G29A,0.0857
7,G7C G16C,0.13
8,C8G U37A,0.115
9,C8G U37C,0.131
10,C8G U37G,0.108
11,G7C A11U,0.0693
12,G7C A11C,0.0664
13,G7C G39C,0.071
14,G7C G44U,0.0818
15,G7C G44A,0.0625
16,C8U C9A,0.112
17,G7U G38C,0.0818
18,G7U G38U,0.103
19,C8U C14G,0.0673
20,C8U C14A,0.63
21,C8U C14U,0.791
22,C8U A23G,0.107
23,C8U A23U,0.078
24,C8U G43U,0.131

row,Variant,self-cleavage
1,G7U G44U,0.0819
2,G7U G44A,0.19
3,C8A C25U,0.125
4,C8A C25G,0.0894
5,C8U G45U,0.313
6,G7U A32U,0.101
7,G7U A32G,0.0756
8,G7C G17U,0.0545
9,G7A G36A,0.109
10,C8A G38U,0.169
11,C8G A40U,0.0905
12,C8G A40C,0.157
13,C8A G44A,0.555
14,G7U A33U,0.109
15,G7C C19G,0.0745
16,G7C G47C,0.122
17,C8A A35C,0.405
18,C8A A35U,0.477
19,C8A A35G,0.226
20,G7C C15A,0.0454
21,G7C C15G,0.0181
22,G7C A23U,0.0664
23,C8U G16A,0.442
24,C8U G16U,0.459

row,Variant,self-cleavage
1,C8U G16C,0.199
2,C8A A10G,0.734
3,C8A A10C,0.594
4,C8G C19A,0.0465
5,C8G C19G,0.0626
6,C8U C26G,0.0721
7,C8U C26U,0.061
8,C8G G17A,0.0824
9,C8G G17C,0.07
10,C8G G17U,0.0532
11,G7C C14U,0.0373
12,C8U G36A,0.18
13,C8U G36U,0.109
14,C8U G36C,0.106
15,C8U G48A,0.45
16,C8U G48C,0.652
17,G7U C27G,0.0829
18,C8U C19G,0.0901
19,C8U C19A,0.0797
20,G7U G45U,0.087
21,G7U G45A,0.0748
22,C8U G47A,0.43
23,C8U G47U,0.345
24,C8U G47C,0.199

row,Variant,self-cleavage
1,C8U G42C,0.217
2,C8U A30G,0.766
3,C8U A30C,0.15
4,C8A C26U,0.098
5,G7A G43C,0.123
6,G7A G43A,0.176
7,G7C C27A,0.0706
8,G7C C27G,0.073
9,G7C C27U,0.0315
10,C8G C27G,0.0686
11,G7U C46A,0.0526
12,G7U G24U,0.0676
13,G7U G24C,0.0734
14,G7A U37G,0.162
15,G7A U37A,0.144
16,G7A U37C,0.111
17,C8U A22C,0.863
18,C8G C46U,0.424
19,C8G C26U,0.0555
20,C8G C26A,0.0716
21,G7U C15A,0.0847
22,G7A G47U,0.19
23,G7A G47C,0.185
